The values below come from the DeepSol protein solubility set.

The data set is described as follows: soluble on expression in E. coli; label from the status in PepcDB or PDB records.
For the sequence “MGSDKIHHHHHHMVAKKKILFFMWSFSLGGGAEKILSTIVSNLDPEKYDIDILEMEHFDKGYESVPKHVRILKSLQDYRQTRWLRAFLWRMRIYFPRLTRRLLVKDDYDVEVSFTIMNPPLLFSKRREVKKISWIHGSIEELLKDSSKRESHRSQLDAANTIVGISKKTSNSIKEVYPDYTSKLQTIYNGYDFQTILEKSQEKIDIEIAPQSICTIGRIEENKGSDRVVEVIRLLHQEGKNYHLYFIGAGDMEEELKKRVKEYGIEDYVHFLGYQKNPYQYLSQTKVLLSMSKQEGFPGVYVEALSLGLPFISTDVGGAEELSQEGRFGQIIESNQEAAQAITNYMTSASNFDVDEASQFIQQFTITKQIEQVEKLLEE”, the “soluble on expression in E. coli” value was “not soluble”.
Consider “MSLYEITQYRLPHLSESAEALCHADKRPVFVGDSAAKPGLQLQQDETRWHSARQHRWSTPLAHQLQRSVQRLLLADNCEGKLTVWVDDFYGSNDSRAVVAGHWEYKSQDSQTVLKGTFTESTPLKSDGYPALVNALDEAWLNVMDTISLGVGQKLAREGHHHHHH”, for which the “soluble on expression in E. coli” value was “soluble”.
The entry for “MADENHVRLSEVQLIQSEFGHSLEECYKLAVQYYKKEHVGKQEPVGYEDRIKLLSLSKQVQHGEISDEFDNAGWLDITGNDVNKAWRELGSLSRDEAMASFVFLVDRVCPPFKGFIADKKAIKDAELKEFAPQVTEQSAQPPSLQQVDQRLFEDQRKQIQEALNAQTFHQFSAYAQEQFPGQPEQQTTLIRQLQEQHYQQYMSQVYAQQSTTPNGAEMNPEESHQHQIRRDDDSDVSDDEAGEDLPSNPAISPASLWNRQDINEFKANIKKDGHEGIIKVGHGETVTVRVPTHENGSCLFWEFATDHYDIGFGVYFEWTVADSNQVSVHVSESDDEEDYDEALEAEQAEAGGGGGGAAGQGGPGDVEAGAMQTRRVDPNKPRQDEIIPVYRRDCHEEVYAGSHRYPGRGIYLLKFDNSYSLWRSKTLYYRVYYSK” is “soluble”.
In the case of “MSLTGGLFGAKPAGSTTGGLFGANTSTQQPAATQGSGLFGAKPTGTGLFGGQTQGSTTSGASAGGLFGKSANPAPGGAGLFGNTAQSNSVSSNTGGLFGSKPAATGGLFGGQPSAPLSTFGQNPATTSLQTPGTGSLFGAKPVSTIAPNTASQMQQQTGISTTNPYGTNELFTRITIPESITAPSQPRFTKVNTDTKATSLNTAYKLNPKPLFSKGSLPSASIAHATPSIDKAPQNTDKSDNETTLVKFGSSLFNPETDEALITADELLFNPDRKSFKTLLINKKKVNEALLNEKSTSPDKDIKRITFNEKSLLKDEDSVRSSIFDNVLETPTNTENKLSEASSVDHDFNERQEVSRPDLKGDLMPNGISKLPGVKGSDFTQMENGYYISPSLDTLASMSLFQLSSVTNFVVGHKDHGYIEFMEPVNLTDIPLTLICGGIIEFRPRACIVKSGNEAGFHGKGFNVRARIVCYKCFPLDKSTRKPVTNPDHALVKNHIKKFKSMPNCKFESYDPKTGTYVFAVDNAEGHHHHHH”, the “soluble on expression in E. coli” value is “soluble”.
The entry for “MSDETDWYGPEAATFGDRLAAAREASGMTQAQLARRLGVKKATINGWEDDLSEPRANRLSMLAGLLNVSIVWLITGEGQGGEALNETDETARDMAALLTELRSLRADLQASGQRAARLEKQLRQIMEHSA” is “not soluble”; for “MKKPFSKLFGLKNKDDIIGHIEEDRNSNVESIQIERIVPNRYQPRQVFEPNKIKELAESIHEHGLLQPIVVRPIEEDMFEIIAGERRFRAIQSLNLPQADVIIRDMDDEETAVVALIENIQRENLSVVEEAEAYKKLLEIGDTTQSELAKSLGKSQSFIANKLRLLKLAPKVLLRLREGKITERHARAVLSLSDSEQEALIEQVIAQKLNVKQTEDRVRQKTGPEKVKAQNLRFAQDVTQARDEVGKSIQAIQQTGLHVEHKDKDHEDYYEIKIRIYKR” it is “not soluble”.
As to “GGGQCYFIPNQSLKPNECQDLKGVSHPLNSVWKTKDCEECTCGQDAISCCNTAAIPTGYDTNKCQKILNKKTCTYTVVEKKDPGKTCDVTGWVL”, the “soluble on expression in E. coli” value was “soluble”.
With “MEVITFESEAYKALVGKIEKIAGYVAEAQLPSEEKKETWLDSNQLAEALGISTRTLQRLRDENLISYSMLRGRCMYKLSEVERCLEERTIRCKPQTLEDFRKNYLTRTGNDKKG”, the “soluble on expression in E. coli” value is recorded as “not soluble”.
The entry for “LGSGTTEDVSDLPVEEQLRRLQEERTCKVCMDKEVSIVFIPCGHLVVCKDCAPSLRKCPICRSTIKGTVRTFLS” is “soluble”; for “MSLKQGLQLRLSQQLAMTPQLQQAIRLLQLSTLELQQELQQALESNPLLEQIDTHEEIDTRETQDSETLDTADALEQKEMPEELPLDASWDTIYTAGTPSGTSGDYIDDELPVYQGETTQTLQDYLMWQVELTPFSDTDRAIATSIVDAVDETGYLTVPLEDILESIGDEEIDIDEVEAVLKRIQRFDPVGVAAKDLRDCLLIQLSQFDKTTPWLEEARLIISDHLDLLANHDFRTLMRVTRLKEDVLKEAVNLIQSLDPRPGQSIQTGEPEYVIPDVLVRKHNGHWTVELNSDSIPRLQINQHYASMCNNARNDGDSQFIRSNLQDAKWLIKSLESRNDTLLRVSRCIVEQQQAFFEQGEEYMKPMVLADIAQAVEMHESTISRVTTQKYLHSPRGIFELKYFFSSHVNTEGGGEASSTAIRALVKKLIAAENPAKPLSDSKLTSLLSEQGIMVARRTVAKYRESLSIPPSNQRKQLVEGHHHHHH” it is “soluble”.
With “MKDTFRLENQTIYFGTERAISASPQTIWRYLTETDKLKQWFPELEIGELGVNGFWRFILPDFEETMPFTDYAEEKYLGVTWDTGIIYFDLKEQAPHQTLLVFSESLPENFTTPRHKDIAGWSIVLNRLKQVVETPDAAPEKIDFPQIENHYLEKLTNLEN”, the “soluble on expression in E. coli” value is “soluble”.
The same measure for “MQQYIGIDVGGTHVKYGVINSDGEELTHHQFDTPEDASTFTRKWQDVVARCQQDYDIAAIGVSFPGHINPHNGHAAKAGALAYLDDVNLMELFSGLTDLPLVVENDANCAALGEMWRGAGQHYENMVCITIGTGIGGGIIVGRELYRGAHFHAGEFGVMPVGNNGESMHKIASTSGLMASCRQALALPAEEMPPADVIFERMATDVHLREAVNDWARYLSRGVYSVISMFDPGVVLIGGGISEQEKLYPLLTRHLETFEMWEALQVPIQPCQLGNQAGRLGAVWLAQQKLDRG”: “not soluble”; for “MGSDKIHHHHHHMPVMDRAAMRTMATLQPSCMRWLCTTPSILDAAKAGWPISWAATPDSPATVTIRQFQASTCCRKKTFDVVVNTDVLEHVPEAELDCVLRDFRKLSTNAIIIPHLAKATRILPNGENAHCTIKTPSEWAQVFKRHYAHVYELPHHSAVHALFLCGDQERDVTALRGILEQYVAAKNEVRHHLLPLGKRIEKAIRLIRGKDINR”: “not soluble”; for “MRKGLLAALLLLSACQVLEGSGYRVTEVQFLFPEATERWTYFYGEPRVVELDGRPLRLEAPQGENLWAFPGALWVEGSPVLRATYPSRPPVAEAVRGVSGSLLQVRAQAPLLATWLYDGVGWVRLTGSLREGEERTLVQPANYQTPRLFPLTEEESAVVLREVLARRGGKPVVVFELREPPLPPLRLSPAPDAYRIARLQVQYGLRLEPVMPPAPIFRVLGQGTQAAYQEEAPLALLANDPTSFNRLWALAVGNQLPRPAAPAVDFRNRSVAAFFWGLKPTGGYGLKVVGVTYAGERARVVLSLGAPKPGAITTQALTSPYVVLELQKVRRVVFADTSGKVLAEARD”: “soluble”.
The same measure for “MGSDKIHHHHHHMKCILYKKALPLILLSCLLLGACGNSKNDSVSKEPLSHTSTEKGTWDSAPKVLTPTADGTQTYTCDVASIDASNSGSGYIIVNYHGSNQKVKLQITGPDSVTYTFDLHGGNEVFPLVASSGSYTVTVFENVEGTQYATVLSQVISVSITDEFGPYLYPNQYVNFTADSPAVKEGSSLAYYCSSDTEVVESVYNYIISNFKYDYDKAKNVKSGYLPDVDKVFTENTGICFDYAAVMATMLRTQAIPTRLEVGYAGEEYHAWISTYIKDKGWINGIIEFDGTSWNMLDPTFASTSDSPKKFIAQKSDYITKYVY”: “not soluble”.
The same measure for “MSLGTMSTEATLLERCQSQCELCAASTPLSPFVVAPHALVTVDHAVMLCDTCKGQIENPETVDMNHWRCLNDSMWSQVQPVQVLAWRQLKRISETEGWARDLLDMMYLDEETAKWAEIGMDDDAEKPRDVNGVELKKGDDVTVIKDLPVKGSSMVIKQGTAVRGIALTEDPKHIQGKVNGQTMYIIAEYCRKKEGGSHHHHHH”: “soluble”; for “MKSFCDNDDNNHSNTTNLLGFSLSSNMMKMGGRGGREAIYSSSTSSAATSSSSVPPQLVVGDNTSNFGVCYGSNPNGGIYSHMSVMPLRSDGSLCLMEALNRSSHSNHHQDSSPKVEDFFGTHHNNTSHKEAMDLSLDSLFYNTTHEPNTTTNFQEFFSFPQTRNHEEETRNYGNDPSLTHGGSFNVGVYGEFQQSLSLSMSPGSQSSCITGSHHHQQNQNQNHQSQNHQQISEALVETSVGFETTTMAAAKKKRGQEDVVVVGQKQIVHRKSIDTFGQRTSQYRGVTRHRWTGRYEAHLWDNSFKKEGHSRKGRQVYLGGYDMEEKAARAYDLAALKYWGPSTHTNFSAENYQKEIEDMKNMTRQEYVAHLRRKSSGFSRGASIYRGVTRHHQHGRWQARIGRVAGNKDLYLGTFGTQEEAAEAYDVAAIKFRGTNAVTNFDITRYDVDRIMSSNTLLSGELARRNNNSIVVRNTEDQTALNAVVEGGSNKEVSTPERLLSFPAIFALPQVNQKMFGSNMGGNMSPWTSNPNAELKTVALTLPQMPVFAAWADS”: “soluble”.
For “MSLAKRIVPCLDVHAGRVVKGVNFVNLRDAGDPVEAARAYDEAGADELVFLDISATHEERAILLDVVARVAERVFIPLTVGGGVRSLEDARKLLLSGADKVSVNSAAVRRPELIRELADHFGAQAVVLAIDARWRGDFPEVHVAGGRVPTGLHAVEWAVKGVELGAGEILLTSMDRDGTKEGYDLRLTRMVAEAVGVPVIASGGAGRMEHFLEAFQAGAEAALAASVFHFGEIPIPKLKRYLAEKGVHVRLD”, the “soluble on expression in E. coli” value is “soluble”.
The entry for “MGSDKIHHHHHHSCDGMDATYKEFIEEGPIVYIGKVDSLKAYAGRNRAMLEWQKLLDPRAKTAKIFWENRTRSTELQLTDKAGLTQVIVKDLAEGSYVFEVCTYDTHGNSSIMSEVPCTVYGDVYEKLLFNTKVKTAVLKNDVLTITFAASLEPTFFGSEITYTSIDGGDKTVILKAPETQIKIDDFAGDRIIYRSVYLPEETAIDYFYSESDEFEIK” is “not soluble”; for “SILATPILIPENQRPPFPRSVGKVIRSEGTEGAKFRLSGKGVDQDPKGIFRINEISGDVSVTRPLDREAIANYQLEVEVTDLSGKIIDGPVRLDISVIDQNDNRPMFKEGPYVGHVMEGSPTGTTVMRMTAFDADDPSTDNALLRYNILKQTPTKPSPNMFYIDPEKGDIVTVVSPVLLDRETMETPKYELVIEAKDMGGHDVGLTGTATATILIDD” it is “soluble”.
The same measure for “MHGVDEDDLERQRIEKIKEVQEAVAKLTGAKFQKLENLQRMERMLNKEIELLQNATRKALETHLVTCNYAFYKSIIDEVEEMENATAVLKTFKRDNVSVTVDIVMKEPNVWIKLVNRPAKTVLIEYRDGKRNGDVIAQIKQHLFVSRRFNRPQIRIYFRNGVLAEMAQKLIRHGIVVIGEHVDKSDPSLRGKWNEELIERLGEEEDSDWDEVDEDAASIPTLPSSQSQSESTLPRLNLDISAVMLLVSNMCEPGGVNYQFKEEMINKHVECERLKPAKAEVLEKLKGHHLIMCELAYRRVAEIVKNVGGPTEKKRFEELSKTIERVQDQPSDEIGRVVKLRNIKGITSITKRVFSCAEVTKTTTVTANQKFLTHSRAKHIYFDVIEIPPRPLTEQKEATAKVI”: “not soluble”.
